{
  "source": "paper doi:10.1101/2021.12.24.474084",
  "about": "(bioRxiv, 2021)",
  "binders": {"B1": {"name": "XGv282 monoclonal antibody (antibody, V domains shown)", "VH": "VQLVQSGAEVKKPGSSVKVSCKASGDTFSSYTFSWVRQAPGQGLEWMGRSIPIVGKAIYAQEFQGRVTISADRSTTTVYMELSSLRSDDTAVYYCARDQSGFDFFYYDHWGQGTLVAV", "VL": "QSVLTQPPSASGTPGQRVTISCSGSGSNIGSNTINWYQQLPGTAPKVLIYRNNERPSGVPDRFSGSKSGTSASLTISGLQSEDEAYYHCAAWDDSLNGPVFGGGTKLTVL"}, "B2": {"name": "XGv347 monoclonal antibody (antibody, V domains shown)", "VH": "QMQLVQSGPEVKKPGTSVKVSCKASGFTFTDVSSLQWVRQARGQRLEWIGWTVVGTGNTNYAPRFQERVTITTDKSTSTAYMELSSLRSEDTAVYYCAAPFCSETSCSDGFDLWGQGTKVTVS", "VL": "EIVLTQSPGTLSLSPGDRATLSCRASQSVRISYLAWYQQKPGQAPRLLISGSSSRATGIPDRFSASGSGTDFTLTISRLEPEDFAVYYCQQYANSPWTFGQGTKVEV"}, "B3": {"name": "XGv265 monoclonal antibody (antibody, V domains shown)", "VH": "QITLKESGPTLVKPTQTLTLTCNFSGFSLNTYGVGVGWIRQPPGKALEWLALIYWDGDERYGPFFKNKVTIAKDTSKNQVVLTMTNMDPVDTATYYCARHLIPTIFDYWGQGTLVTVSS", "VL": "ALTQPASVSGSPGQSITISCTGTSSDVGGSNYVSWYQHHPDRAPKLLIYEVTNRPSGVSNRFSGSKSANTASLTISGLQAEDEADYYCSSYTTTSTHILFGGGTKLTV"}, "B4": {"name": "XGv289 monoclonal antibody (antibody, V domains shown)", "VH": "QVQLVQSGAEVKKPGASLKVSCRASGYTFTSHFIHWVRQAPGQGLEWMGIINPSGGASYAQNFRDRVTMTTDPSTSTVYMELGSLRSEDTAVYYCARAEGSSWLGWFDPWGQGTLVTVSS", "VL": "SVLTQPPSASGTPGQRVTIPCSGSSSNIGNNYVYWYQQLPGTAPKLLVYGNNQRPSGVPDRFSVSKSGTSASLAISGLRSEDEADYYCAAWDDGLSGSGWVFGGGTKLTVL"}},
  "data": [
    {"target": "SARS-CoV-2 wild-type receptor binding domain (RBD) (ACROBiosystems, Cat No. SPD-C52H3) (SARS-CoV-2 wild-type (MN908947), UniProt P0DTC2)", "assay": "BLI", "values": [
      {"binder": "B1", "binding result": "binds"},
      {"binder": "B2", "binding result": "binds"},
      {"binder": "B3", "binding result": "binds"},
      {"binder": "B4", "binding result": "binds"}
    ]}
  ]
}
